How the values were obtained:
[1] = molecular target: tissue factor (TF) antigen (UniProt P13726); experiment: SPR; against wild-type D3H44 Fab
[2] = molecular target: tissue factor (TF) antigen (UniProt P13726); experiment: SPR (ProteOn), Fab captured on anti-penta His, TF as analyte, 1:1 fit
[3] = molecular target: tissue factor (TF) antigen (UniProt P13726); experiment: SPR; log ratio against wild-type D3H44 Fab
[4] = molecular target: tissue factor (TF) antigen (UniProt P13726); experiment: SPR (ProteOn XPR36): Fab captured via His tag on anti-penta-His, TF as analyte, 1:1 fit
[5] = molecular target: tissue factor (TF) antigen (UniProt P13726); experiment: SPR; reference wild-type D3H44 Fab
[6] = molecular target: tissue factor (TF) antigen (UniProt P13726); experiment: SPR, Fab captured by anti-His, TF as analyte

Chain of tissue factor (TF) antigen (P13726 33-251 limits assumed): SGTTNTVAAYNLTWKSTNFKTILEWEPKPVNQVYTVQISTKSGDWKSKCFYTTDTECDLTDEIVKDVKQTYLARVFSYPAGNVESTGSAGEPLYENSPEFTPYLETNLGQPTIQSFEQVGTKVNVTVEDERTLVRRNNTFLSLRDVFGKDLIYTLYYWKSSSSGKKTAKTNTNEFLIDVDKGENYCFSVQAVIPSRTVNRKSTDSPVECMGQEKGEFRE

Substance “D3H44 Fab heterodimer, H1 A139G_F174V_V190A / L1 S131T_L135F_S176F_T178F (H1L1 of LCCA set 9051)” has a Change in KD with respect to wild type (-(log(KD design) - log(KD wt))) [1] of 0.06 and a Kd [2] of 0.14 nM.

With “D3H44 Fab heterodimer, H Q179R / L Q124E_S176L_T180E (H1L1 of LCCA set 9808)” the Change in KD with respect to wild type (-(log(KD design) - log(KD wt))) [3] was -0.02 and the Kd [4] was 0.17 nM.

Substance “D3H44 Fab heterodimer, H1 Q179K / L1 Q124E_T180E (H1L1 of LCCA sets 9796 and 9789)” has a Change in KD with respect to wild type (-(log(KD design) - log(KD wt))) [1] of 0.16 and a Kd [2] of 0.11 nM.

“D3H44 Fab heterodimer, heavy L124E_L143D_K145T / light Q124K_V133G_S176R_T178K” was tested, and the Change in KD of h1|1 Fab heterodimer with respect to wild type (-(log(KD design) - log(KD wt))) [5] was -0.08 and the Kd [6] was 0.19 nM.

In the case of “D3H44 Fab heterodimer, H S186R / L Q124E_S176L_T180E (H1L1 of LCCA set 9886)”, the Change in KD with respect to wild type (-(log(KD design) - log(KD wt))) [3] is reported as -0.06 and the Kd [4] is reported as 0.18 nM.

“D3H44 Fab heterodimer, H Q179K / L Q124E_S176L_T180E (H1L1 of LCCA set 9782)” showed a Change in KD with respect to wild type (-(log(KD design) - log(KD wt))) [3] of 0.28 and a Kd [4] of 0.08 nM.

“D3H44 Fab heterodimer, H1 S186K / L1 Q124E_T180E (H1L1 of LCCA set 9862)” was tested, and the Change in KD with respect to wild type (-(log(KD design) - log(KD wt))) [1] was 0.46 and the Kd [2] was 0.06 nM.

In the case of “D3H44 Fab heterodimer, H L143R / L Q124E_V133E (H1L1 of LCCA sets 9735 and 9737)”, the Change in KD with respect to wild type (-(log(KD design) - log(KD wt))) [3] is reported as -0.09 and the Kd [4] is reported as 0.2 nM.

With “D3H44 Fab heterodimer, heavy L124E_L143D_K145T / light Q124K_V133G_S176R_T178R” the Change in KD of h1|1 Fab heterodimer with respect to wild type (-(log(KD design) - log(KD wt))) [5] was -0.02 and the Kd [6] was 0.16 nM.

With “D3H44 Fab heterodimer, H L143E_K145T_Q179D / L Q124R_T178K (H1L1 of LCCA set 9626)” the Change in KD with respect to wild type (-(log(KD design) - log(KD wt))) [3] was 0.12 and the Kd [4] was 0.12 nM.

“D3H44 Fab heterodimer, H1 Q179K / L1 Q124E_Q160E_T180E (H1L1 of LCCA set 9763)” showed a Change in KD with respect to wild type (-(log(KD design) - log(KD wt))) [1] of -0.31 and a Kd [2] of 0.32 nM.

“D3H44 Fab heterodimer, H1 L124R_D146N_Q179K / L1 Q124E_V133G_S176D_T178E_T180E (H1L1 of LCCA set 9351)” gave a Change in KD with respect to wild type (-(log(KD design) - log(KD wt))) [1] of -0.1 and a Kd [2] of 0.2 nM.

In the case of “D3H44 Fab heterodimer, H L143E_K145T / L Q124R (H1L1 of LCCA set 9587)”, the Change in KD with respect to wild type (-(log(KD design) - log(KD wt))) [3] is reported as -0.25 and the Kd [4] is reported as 0.28 nM.

In the case of “D3H44 Fab heterodimer, H Q179K / L Q124E_T180E (H1L1 of LCCA sets 9797, 9794, 9789 and 9787)”, the Change in KD with respect to wild type (-(log(KD design) - log(KD wt))) [3] is reported as 0.16 and the Kd [4] is reported as 0.11 nM.

In the case of “D3H44 Fab heterodimer, H S186K / L Q124E_T180E (H1L1 of LCCA sets 9855, 9860 and 9863)”, the Change in KD with respect to wild type (-(log(KD design) - log(KD wt))) [3] is reported as 0.46 and the Kd [4] is reported as 0.06 nM.

Substance “D3H44 Fab heterodimer, H S186K / L Q124E_S131T_T178Y_T180E (H1L1 of LCCA set 9846)” has a Change in KD with respect to wild type (-(log(KD design) - log(KD wt))) [3] of 0.09 and a Kd [4] of 0.13 nM.

Work on “D3H44 Fab heterodimer, H1 L124R_S186K / L1 V133G_S176D_T178D_T180E (H1L1 of LCCA set 9473)” yielded a Change in KD with respect to wild type (-(log(KD design) - log(KD wt))) [1] of -0.07 and a Kd [2] of 0.18 nM.

Substance “D3H44 Fab heterodimer, heavy L124R_S186R / light V133G_S176D_T178E_T180E” has a Change in KD of h2|2 Fab heterodimer with respect to wild type (-(log(KD design) - log(KD wt))) [5] of -0.15 and a Kd [6] of 0.22 nM.

Work on “D3H44 Fab heterodimer, heavy L124E_L143D_K145M / light Q124K_V133G_S176R_T178K” yielded a Change in KD of h1|1 Fab heterodimer with respect to wild type (-(log(KD design) - log(KD wt))) [5] of -0.15 and a Kd [6] of 0.22 nM.

“D3H44 Fab heterodimer, heavy L124R_S186K / light V133G_S176D_T178D_T180E” showed a Change in KD of h2|2 Fab heterodimer with respect to wild type (-(log(KD design) - log(KD wt))) [5] of -0.07 and a Kd [6] of 0.18 nM.

“D3H44 Fab heterodimer, H1 L124E_L143E_K145M / L1 Q124K_V133G_S176R_T178K (H1L1 of LCCA sets 9260 and 9263)” gave a Change in KD with respect to wild type (-(log(KD design) - log(KD wt))) [1] of -0.19 and a Kd [2] of 0.24 nM.

In the case of “D3H44 Fab heterodimer, H S186K / L Q124E_Q160E_T178E (H1L1 of LCCA set 9829)”, the Change in KD with respect to wild type (-(log(KD design) - log(KD wt))) [3] is reported as 0.41 and the Kd [4] is reported as 0.06 nM.

“D3H44 Fab heterodimer, heavy L124E_L143D_K145M / light Q124K_V133G_Q160K_S176R” showed a Change in KD of h1|1 Fab heterodimer with respect to wild type (-(log(KD design) - log(KD wt))) [5] of -0.24 and a Kd [6] of 0.27 nM.

With “D3H44 Fab heterodimer, H S186K / L Q124E_S176L_T180E (H1L1 of LCCA set 9848)” the Change in KD with respect to wild type (-(log(KD design) - log(KD wt))) [3] was 0.03 and the Kd [4] was 0.15 nM.

Reference: patent US11306156
